Common to all, as to experiment: cell-based or functional assay
For assay [1], the target named is human Vasoactive Intestinal Peptide Receptor 1 (VPAC1) (human) (UniProt P32241).
Assay [2] has as its target human Vasoactive Intestinal Peptide Receptor 2 (VPAC2) (human) (UniProt P41587).
Assay [3] concerns the target T1, human Vasoactive Intestinal Peptide Receptor 1 (VPAC1) (human, UniProt P32241 31-457).
T1 sequence (looked up): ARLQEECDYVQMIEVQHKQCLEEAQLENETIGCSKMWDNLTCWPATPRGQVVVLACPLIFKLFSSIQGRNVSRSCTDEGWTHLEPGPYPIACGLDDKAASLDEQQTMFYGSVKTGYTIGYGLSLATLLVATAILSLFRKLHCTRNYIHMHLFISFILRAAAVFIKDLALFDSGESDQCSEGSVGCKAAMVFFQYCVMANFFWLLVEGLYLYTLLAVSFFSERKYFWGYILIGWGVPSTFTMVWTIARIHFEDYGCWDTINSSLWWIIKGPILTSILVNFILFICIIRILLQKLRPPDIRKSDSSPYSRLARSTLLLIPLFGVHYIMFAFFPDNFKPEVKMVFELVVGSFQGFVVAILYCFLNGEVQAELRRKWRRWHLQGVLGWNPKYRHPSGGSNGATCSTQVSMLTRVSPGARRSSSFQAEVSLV

Results on two molecules are retold here after patent US20110178017A1 (PHASEBIO PHARMACEUTICALS, published 2011).

human Vasoactive Intestinal Peptide Receptor 2 (VPAC2) (human), sequence (P41587 24-438): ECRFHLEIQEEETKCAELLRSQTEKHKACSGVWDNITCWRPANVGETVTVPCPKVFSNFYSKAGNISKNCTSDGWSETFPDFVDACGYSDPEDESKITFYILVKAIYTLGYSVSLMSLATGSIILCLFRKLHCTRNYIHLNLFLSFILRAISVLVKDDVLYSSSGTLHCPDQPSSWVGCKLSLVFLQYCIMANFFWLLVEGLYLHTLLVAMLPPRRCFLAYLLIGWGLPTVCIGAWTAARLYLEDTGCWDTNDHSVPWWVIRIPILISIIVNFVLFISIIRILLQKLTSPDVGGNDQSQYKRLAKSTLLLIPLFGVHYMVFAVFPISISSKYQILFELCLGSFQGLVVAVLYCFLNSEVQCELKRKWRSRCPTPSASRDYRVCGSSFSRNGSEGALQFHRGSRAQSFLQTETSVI

In assay [1], PB1120 (VIP-ELP1-120 fusion peptide) showed an activity (cAMP) in CHO cells expressing VPAC1, relative to native VIP (fold less active than native VIP) of 1.4. In assay [2], this molecule registered an activity (cAMP) in CHO cells expressing VPAC2, relative to native VIP (fold less active than native VIP) of 1.5.

B1: PB1046 (M-VIP-ELP1-120 fusion protein) (other)
chain: MHSDAVFTDNYTRLRKQMAVKKYLNSILNVPGVGVPGVGVPGGGVPGAGVPGVGVPGVGVPGVGVPGGGVPGAGVPGGGVPGVGVPGVGVPGGGVPGAGVPGVGVPGVGVPGVGVPGGGVPGAGVPGGGVPGVGVPGVGVPGGGVPGAGVPGVGVPGVGVPGVGVPGGGVPGAGVPGGGVPGVGVPGVGVPGGGVPGAGVPGVGVPGVGVPGVGVPGGGVPGAGVPGGGVPGVGVPGVGVPGGGVPGAGVPGVGVPGVGVPGVGVPGGGVPGAGVPGGGVPGVGVPGVGVPGGGVPGAGVPGVGVPGVGVPGVGVPGGGVPGAGVPGGGVPGVGVPGVGVPGGGVPGAGVPGVGVPGVGVPGVGVPGGGVPGAGVPGGGVPGVGVPGVGVPGGGVPGAGVPGVGVPGVGVPGVGVPGGGVPGAGVPGGGVPGVGVPGVGVPGGGVPGAGVPGVGVPGVGVPGVGVPGGGVPGAGVPGGGVPGVGVPGVGVPGGGVPGAGVPGVGVPGVGVPGVGVPGGGVPGAGVPGGGVPGVGVPGVGVPGGGVPGAGVPGVGVPGVGVPGVGVPGGGVPGAGVPGGGVPGVGVPGVGVPGGGVPGAGVPGVGVPGVGVPGVGVPGGGVPGAGVPGGGVPGWP
As for B1, the “activity (cAMP) in CHO cells expressing VPAC1, relative to native VIP” value in assay [3] was ~11 fold less active than native VIP.
